In patent EP4700046A1 one finds Kd data, which are given here for three molecules.

Positions count from the first letter of the chain named.

One may read the Kd as the equilibrium constant for the complex coming apart.

B1: IgG_18 (antibody, part only; not given: VL CDR2; constant regions, V domains shown, part only)
VH: EVQLLESGGGLVQPGGSLRLSCAASGFTFSNYAMSWVRQAPGKGLEWVSSISPSGSSKYYADSVKGRFTISRDNSKNTLYLQMNSLRAEDTAVYYCAKHNRHFDYWGQGTLVTVSS
VL, part: QSVLTQPPSASGTPGQRVTISCTGSSSNIGSHYVSWYQQLPGTAPKLLIYHRPSGVPDRFSGSKSGTSASLAISGLRSEDEADYYCGSWDDSLNAYVFGGGTKLTVL
B2: IgG_54 (antibody, part only; not given: VL CDR2; constant regions, V domains shown, part only)
VH: EVQLLESGEGLVQPGGSLRLSCAASGFTFSNYSMSWVRQAPGKGLEWVSGISSGGGSKYYADSVKGRFTISRDNSKNTLYLQMNSLRAEDTAVYYCARQATAFDYWGQGTLVTVSS
VL, part: B1 VL, part with S31N, H32N, Y33S, S35T, H51N, S88T, N94S, G99C
B3: IgG_56 (antibody, part only; not given: VL CDR2; constant regions, V domains shown, part only)
VH: EVQLLESGGGLVQPGGSLRLSCAASGFTFSGYPMSWVRQAPGKGLEWVSSISSSGGNTYYADSVKGRFTISRDNSKNTLYLQMNSLRAEDTAVYYCARFGIHHPDRALYYANAMDVWGQGTLVTVSS
VL, part: B1 VL, part with T23S, S31N, H32N, Y33D, S35N, H51Q, G87A, S88T, D91A, N94S

For this experiment, the target named is 6xHis-SUMO-CXCR2(NTD) (human) (UniProt P25025). The experiment can be described thus: BLI (Octet R4), His-tagged SUMO-CXCR2(NTD) on HIS1K biosensor, IgG as analyte, 1:1 model. In general terms: In BLI a coated tip is dipped into the sample, and binding shifts an interference pattern.
UniProt P25025, sequence (P25025 1-48): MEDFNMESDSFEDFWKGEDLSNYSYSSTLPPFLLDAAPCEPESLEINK
B1 showed a Kd of 8.9 nM.
B2 yielded a Kd of 250 nM.
B3 returned a Kd of 5.6 nM.
